Laboratory results taken from publication doi:10.1101/2024.04.26.591398 (2024).

Target: T1, FITC-casein (FITC label (FITC-casein))
T1 chain: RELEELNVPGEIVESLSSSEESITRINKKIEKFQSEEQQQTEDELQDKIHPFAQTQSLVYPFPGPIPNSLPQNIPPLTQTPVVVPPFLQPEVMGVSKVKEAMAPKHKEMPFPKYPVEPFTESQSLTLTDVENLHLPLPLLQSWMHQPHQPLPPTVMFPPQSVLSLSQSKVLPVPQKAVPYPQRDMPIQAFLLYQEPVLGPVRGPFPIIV
Assay: FP; competition: Ydj1 dissociating FITC-casein from Hsp104 R366E, ATPγS

IC50: ~20 µM
B1: Ydj1 (natural protein)
chain: MVKETKFYDILGVPVTATDVEIKKAYRKCALKYHPDKNPSEEAAEKFKEASAAYEILSDPEKRDIYDQFGEDGLSGAGGAGGFPGGGFGFGDDIFSQFFGAGGAQRPRGPQRGKDIKHEISASLEELYKGRTAKLALNKQILCKECEGRGGKKGAVKKCTSCNGQGIKFVTRQMGPMIQRFQTECDVCHGTGDIIDPKDRCKSCNGKKVENERKILEVHVEPGMKDGQRIVFKGEADQAPDVIPGDVVFIVSERPHKSFKRDGDDLVYEAEIDLLTAIAGGEFALEHVSGDWLKVGIVPGEVIAPGMRKVIEGKGMPIPKYGGYGNLIIKFTIKFPENHFTSEENLKKLEEILPPRIVPAIPKKATVDECVLADFDPAKYNRTRASRGGANYDSDEEEQGGEGVQCASQ
